{"source": "paper PMC7439480", "about": "“Phosphorylation-Dependent Assembly of a 14-3-3 Mediated Signaling Complex during Red Blood Cell Invasion by Plasmodium falciparum Merozoites” (mBio, 2020)", "binders": {"B1": {"name": "14-3-3 binding peptide AA (ARSHpSYPA) (peptide)", "peptide": "ARSH[pS]YPA", "notes": "Coupled to agarose beads (Pierce co-IP kit) for the pull-down; also called phosphopeptide AA; source: synthetic peptide"}, "B2": {"name": "14-3-3 binding peptide RA (RLYHpSLPA) (peptide)", "peptide": "RLYH[pS]LPA", "notes": "Coupled to agarose beads (Pierce co-IP kit) for the pull-down; also called phosphopeptide RA; source: synthetic peptide"}}, "target": "T1, recombinant glutathione S-transferase (GST)-tagged Pf14-3-3I protein (P. falciparum, UniProt C0H4V6 1-262)", "T1 construct": "14-3-3 protein I, P. falciparum, PF3D7_0818200; also called Pf14-3-3I-GST; recombinant Pf14-3-3I; source: recombinant", "T1 sequence": "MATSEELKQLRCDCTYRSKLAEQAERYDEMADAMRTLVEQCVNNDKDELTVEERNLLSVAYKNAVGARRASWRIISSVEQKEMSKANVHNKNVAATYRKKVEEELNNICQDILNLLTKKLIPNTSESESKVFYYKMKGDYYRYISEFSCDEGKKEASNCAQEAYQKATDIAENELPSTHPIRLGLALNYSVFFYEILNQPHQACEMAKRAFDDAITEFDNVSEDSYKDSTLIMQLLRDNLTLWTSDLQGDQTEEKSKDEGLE", "experiment": "pull-down; peptides coupled to agarose beads (Pierce co-IP kit) incubated with GST-tagged Pf14-3-3I; eluates blotted with anti-Pf14-3-3I mouse sera; noncoated beads as control", "conditions": "both partners purified", "note": "Non-standard residues stand in square brackets, D forms with d. No end group written: not given here. pS = N[C@@H](COP(=O)(O)O)C(=O)O", "data": [{"binder": "B1", "values": [{"measurement": "binding result", "value": "binds"}]}, {"binder": "B2", "values": [{"measurement": "binding result", "value": "binds"}]}]}
